These results are taken from publication doi:10.1101/452904 (bioRxiv, 2018).

In this assay the target is FLAG-Sec23A (human, UniProt Q15436 1-765). As to the kind of experiment: pull-down.
Chain of FLAG-Sec23A (Q15436 whole entry): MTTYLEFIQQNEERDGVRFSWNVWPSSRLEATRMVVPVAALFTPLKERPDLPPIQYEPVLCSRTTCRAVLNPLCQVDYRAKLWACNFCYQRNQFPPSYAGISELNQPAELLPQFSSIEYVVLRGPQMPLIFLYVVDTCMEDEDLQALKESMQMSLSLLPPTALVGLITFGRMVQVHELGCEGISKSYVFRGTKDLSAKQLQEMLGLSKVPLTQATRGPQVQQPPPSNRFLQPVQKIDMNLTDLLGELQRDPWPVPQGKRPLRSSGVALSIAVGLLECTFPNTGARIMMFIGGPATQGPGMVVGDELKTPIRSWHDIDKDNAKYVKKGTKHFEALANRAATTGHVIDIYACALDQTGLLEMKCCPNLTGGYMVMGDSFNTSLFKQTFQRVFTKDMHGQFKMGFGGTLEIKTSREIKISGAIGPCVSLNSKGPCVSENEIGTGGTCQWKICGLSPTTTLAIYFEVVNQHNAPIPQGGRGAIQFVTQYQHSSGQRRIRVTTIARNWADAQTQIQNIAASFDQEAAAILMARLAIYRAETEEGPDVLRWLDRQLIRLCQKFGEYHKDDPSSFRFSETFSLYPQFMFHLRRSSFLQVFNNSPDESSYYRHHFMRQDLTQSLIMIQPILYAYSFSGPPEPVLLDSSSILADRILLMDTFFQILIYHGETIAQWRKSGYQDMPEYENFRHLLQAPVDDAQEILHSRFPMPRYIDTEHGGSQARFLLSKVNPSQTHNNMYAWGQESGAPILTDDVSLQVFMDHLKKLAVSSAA

B1: GST-tagged TANGO1-PRD (1651–1907 aa)-His6 (domain or fragment)
chain: NTQNPPRRGPLSQNGSFGPSPVSGGECSPPLTVEPPVRPLSATLNRRDMPRSEFGSVDGPLPHPRWSAEASGKPSPSDPGSGTATMMNSSSRGSSPTRVLDEGKVNMAPKGPPPFPGVPLMSTPMGGPVPPPIRYGPPPQLCGPFGPRPLPPPFGPGMRPPLGLREFAPGVPPGRRDLPLHPRGFLPGHAPFRPLGSLGPREYFIPGTRLPPPTHGPQEYPPPPAVRDLLPSGSRDEPPPASQSTSQDCSQALKQSP
For B1, the binding result is recorded as “binds”.
